Experimental data taken from patent US20220332776A1, “ANTIBODY […] INDUCED DIMERIZERS (AbCID) AS MOLECULAR […] AND USES THEREOF” (The Regents of the University of California, priority 2019, published 2022).

T1: pomalidomide-bound cereblon IMiD-binding domain (Pongo abelii (Sumatran orangutan) …, UniProt Q5R6Y2 306-414, biotinylated on its AviTag)
T1 construct: not shown: TEV cut site, AviTag and HIS6 tag fused to the domain
T1 sequence: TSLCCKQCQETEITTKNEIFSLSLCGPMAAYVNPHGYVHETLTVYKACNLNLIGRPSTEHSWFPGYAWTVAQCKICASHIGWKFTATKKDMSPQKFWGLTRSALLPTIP

B1: Fab-PC1 (Fab)
heavy: EISEVQLVESGGGLVQPGGSLRLSCAASGFNVSSYSIHWVRQAPGKGLEWVASISSYSGSTSYADSVKGRFTISADTSKNTAYLQMNSLRAEDTAVYYCARSYFVEYYYYYGWPWGLDYWGQGTLVTVSSASTKGPSVFPLAPSSKSTSGGTAALGCLVKDYFPEPVTVSWNSGALTSGVHTFPAVLQSSGLYSLSSVVTVPSSSLGTQTYICNVNHKPSNTKVDKKVEPKSCDKTHTGGSHHHHHH
light: SDIQMTQSPSSLSASVGDRVTITCRASQSVSSAVAWYQQKPGKAPKLLIYSASSLYSGVPSRFSGSRSGTDFTLTISSLQPEDFATYYCQQSSYSYLFTFGQGTKVEIKRTVAAPSVFIFPPSDSQLKSGTASVVCLLNNFYPREAKVQWKVDNALQSGNSQESVTEQDSKDSTYSLSSTLTLSKADYEKHKVYACEVTHQGLSSPVTKSFNRGECGGSDYKDDDDK
notes: chains assembled here by putting the CDRs in place of the scaffold's own CDR stretches; also called Fab-phage clone PC1
B2: Fab-PC1: Fab-phage clone from pomalidomide-cereblon IMiD-binding domain selection; CDRs SEQ ID NO: 4, 9, 14, 21, 22, 19 (antibody)
heavy: B1 heavy
light: B1 light
B3: Fab-TC2: Fab-phage clone from thalidomide-cereblon IMiD-binding domain selection; CDRs SEQ ID NO: 2, 7, 12, 21, 22, 17 (antibody)
heavy: EISEVQLVESGGGLVQPGGSLRLSCAASGFNVSSSSIHWVRQAPGKGLEWVASIYSYYGSTYYADSVKGRFTISADTSKNTAYLQMNSLRAEDTAVYYCARTDSWYYYRYGGMDYWGQGTLVTVSSASTKGPSVFPLAPSSKSTSGGTAALGCLVKDYFPEPVTVSWNSGALTSGVHTFPAVLQSSGLYSLSSVVTVPSSSLGTQTYICNVNHKPSNTKVDKKVEPKSCDKTHTGGSHHHHHH
light: SDIQMTQSPSSLSASVGDRVTITCRASQSVSSAVAWYQQKPGKAPKLLIYSASSLYSGVPSRFSGSRSGTDFTLTISSLQPEDFATYYCQQYSWWWMPITFGQGTKVEIKRTVAAPSVFIFPPSDSQLKSGTASVVCLLNNFYPREAKVQWKVDNALQSGNSQESVTEQDSKDSTYSLSSTLTLSKADYEKHKVYACEVTHQGLSSPVTKSFNRGECGGSDYKDDDDK

What was measured:
[1] = system: scFab-TC1-eGFP fusion protein; experiment: IMiD-induced degradation of scFab-TC1-eGFP in HEK 293T cells, flow cytometry for GFP fluorescence; type: cell-based; conditions: HEK 293T cells transfected with scFab-TC1-eGFP; 1000 nM, 100 nM or 10 nM for 20 hours; GFP fluorescence intensity
Procedure: Fab TC1 was converted into a previously described single-chain Fab construct using Gibson cloning (Hornsby, et al., Mol. Cell. Proteomics, 14:2833-2847 (2015)) and subsequently fused to eGFP by Gibson cloning into a pcDNA3.1 vector to produce an expression vector encoding an scTC1-eGFP fusion protein.
K562 and HEK293T cells utilized were from frozen stocks maintained by the Wells lab. The cell lines were not authenticated before use. No test for mycoplasma contamination was performed. Cells expressing scTC1-eGFP were transfected with FugeneHD transfection reagent purchased from Promega using the manufacturer's protocol. Unless otherwise noted all Jurkat and K562 cells lines were cultured in RPMI supplemented with 10% FBS and 1× Pen/Strep. CD19^+ K562 cells were maintained in puromycin (2 μg/mL). HEK293T cells containing the Gal4-UAS-Fluc operon were maintained in High Glucose DMEM supplemented with 10% FBS, 1× Pen/Strep, and puromycin (2 μg/mL). All cell lines were cultured at 37° C. under 5% CO2.
HEK 293T cells (ATCC® CRL-3216™) were transfected to express scFab-TC1-eGFP. Transfected cells were treated with thalidomide, lenalidomide, or pomalidomide at 1000 nM, 100 nM, or 10 nM for 20 hours, after which GFP fluorescence intensity was measured by flow cytometry. Treatment with DMSO was included as a negative control.

[2] = target: T1, pomalidomide-bound cereblon …; experiment: Fab-phage competition ELISA (OD450): binding to immobilized IMiD-bound cereblon IMiD-binding domain with 20 nM soluble competitor divided by binding without competitor
[3] = target: T2, cereblon IMiD-binding domain (Homo sapiens, UniProt Q96SW2); experiment: Biolayer interferometry binding kinetics of Fabs to cereblon IMiD-binding domain; conditions: for binding to the cereblon IMiD-binding domain alone: absence of IMiD
T2 construct: TEV cut site; HIS6 tag; made in house; host or cells: E. coli BL21(DE3)
Procedure: Biolayer interferometery data were measured using an Octet RED384 instrument (ForteBio). Biotinylated cereblon was immobilized on a Streptavidin (SA) biosensor using a 200 nM solution. Serial dilutions of Fabs in kinetics buffer (PBS, pH 7.4, 0.05% Tween-20, 0.2% BSA, 10 μM biotin) with IMiD (1 μM) or vehicle (0.05% DMSO) were used as analyte. Affinity (KD) and kinetic parameters (kon and koff) were calculated from a global fit (1:1) of the data using the Octet RED384 software.
(§1) The unique Fabs from Example 1 were sub-cloned into a bacterial expression vector, expressed, and purified (Hornsby, et al., Mol. Cell. Proteomics, 14:2833-2847 (2015)). […] To further profile the Fabs, we characterized the kinetics of cereblon IMiD-binding domain binding for Fab-TC2 and Fab-PC1 in the presence or absence of their respective IMiD by biolayer interferometry (FIGS. 3A and 3B) (Shah, et al., J. Vis. Exp., e51383 (2014)).

[4] = target: T3, cereblon IMiD-binding domain (SEQ ID NO: 25) (Homo sapiens, UniProt Q96SW2); experiment: Fab ELISA with cereblon IMiD-binding domain in the presence or absence of IMiD; conditions: thalidomide, lenalidomide or pomalidomide, FIG. 2G
T3 construct: TEV cut site; HIS6 tag; made in house; host or cells: E. coli BL21(DE3)
Procedure: ELISAs were performed according to standard protocols. […] 20 nM of biotinylated cereblon was captured on the NeutrAvidin-coated wells for 30 minutes followed by the addition of various concentrations of Fab with either 5 μM thalidomide, lenalidomide, or pomalidomide or 0.05% DMSO for 30 minutes. The bound Fabs were then detected using a horseradish peroxidase (HRP)-conjugated anti-Fab monoclonal antibody (Jackson ImmunoResearch 109-036-097).
as §1

[5] = in the presence of lenalidomide
[6] = in the presence of pomalidomide

| Molecule | GFP expression compared to the DMSO control [1] | binding to the cereblon IMiD-binding domain alone [3] | binding to the cereblon IMiD-binding domain [3, 5] | binding to the cereblon IMiD-binding domain [3, 6] | binding to the cereblon IMiD-binding domain ([3]; in the presence of thalidomide) | also measured |
| --- | --- | --- | --- | --- | --- | --- |
| O=C1CCC(N2C(=O)c3ccccc3C2=O)C(=O)N1 (stereo not drawn) [thalidomide] | reduced GFP expression |  |  |  |  |  |
| Nc1cccc2c1C(=O)N(C1CCC(=O)NC1=O)C2=O (stereo not drawn) [pomalidomide] | reduced GFP expression |  |  |  |  |  |
| Nc1cccc2c1CN(C1CCC(=O)NC1=O)C2=O (stereo not drawn) [lenalidomide] | reduced GFP expression |  |  |  |  |  |
| B1 |  |  |  |  |  | competition selectivity ratio [2]: < 0.5 |
| B2 |  | no significant binding | potent and reversible binding | potent and reversible binding | potent and reversible binding |  |
| B3 |  | no significant binding | potent and reversible binding | potent and reversible binding | potent and reversible binding | binding to the cereblon IMiD-binding domain bound to a different IMiD than the one used for selection [4]: all except one of the Fabs (Fab-phage clone TC2) was able to bind; binding compared to binding in the presence of thalidomide [3, 5]: less potent binding; binding compared to binding in the presence of thalidomide [3, 6]: less potent binding |
